Laboratory results reported in patent US20140303084.

How the values were obtained:
[1] = tested on: T1, (KLTCLASYCWLFG)2═N-O-(CH2)3-O-N═
T1 sequence: KLTCLASYCWLFG

[2] = tested on: T2, CGGSGGRRAPGKLQCLASYCWLFWTGIAC
T2 sequence: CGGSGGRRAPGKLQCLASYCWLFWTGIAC

GVEDRQLTCLASSCWVFSRHSV = tested on: T3, GVEDRQLTCLASSCWVFSRHSV
T3 sequence: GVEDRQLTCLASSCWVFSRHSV

KLTCL-Dpr-SYCWLF = tested on: T4, KLTCL-Dpr-SYCWLF
T4 sequence: KLTCLXSYCWLF

[3] = tested on: T5, LQLSYGEQRQ SRAPG KLTCLASYCWLFWTGIA
T5 sequence: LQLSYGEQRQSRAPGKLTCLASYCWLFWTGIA

Lys(Me)-LTCLASYCWLF = tested on: T6, Lys(Me)-LTCLASYCWLF
T6 sequence: KLTCLASYCWLF

[4] = tested on: T7, PRIRTVSPGSRSASGKSTCLASYCWLFWTGIA
T7 sequence: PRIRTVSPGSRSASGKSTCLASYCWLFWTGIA

RKAPGKLQCLASYCWLFWTGIA = tested on: T8, RKAPGKLQCLASYCWLFWTGIA
T8 sequence: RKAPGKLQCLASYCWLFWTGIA

[5] = tested on: T9, RPRSSAHDRP RRAAG KLTCLASYCWLFWTGIA
T9 sequence: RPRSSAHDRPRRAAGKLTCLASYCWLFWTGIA

[6] = tested on: T10, RRAPGKLCALASYACLFWTGIA-COOH
T10 sequence: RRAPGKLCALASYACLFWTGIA

RRAPGKLQCLASYCWLFWTGAA = tested on: T11, RRAPGKLQCLASYCWLFWTGAA
T11 sequence: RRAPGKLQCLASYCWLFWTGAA

[7] = tested on: T12, RRAPGKLT-Asp-LASY-Lys-WLFWTGIA-CONH2
T12 sequence: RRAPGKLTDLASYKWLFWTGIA

[8] = tested on: T13, RRAPGKLTCLASYCWLF LTGWA RVPLPPRPHP
T13 sequence: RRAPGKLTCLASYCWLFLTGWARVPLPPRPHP

RRAPGKLTCLASyCWLFWTGIA = tested on: T14, RRAPGKLTCLASyCWLFWTGIA
T14 sequence: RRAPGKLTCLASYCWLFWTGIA

[9] = tested on: T15, SKQGRPISADrRAAGKLTCLASYCWLFWTGIA
T15 sequence: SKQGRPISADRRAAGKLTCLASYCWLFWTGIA

kLTCLASYCWLF = tested on: T16, kLTCLASYCWLF
T16 sequence: KLTCLASYCWLF

rRAPGKSTCLASYCWLFWTGIA = tested on: T17, rRAPGKSTCLASYCWLFWTGIA
T17 sequence: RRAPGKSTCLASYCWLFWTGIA

rRASGKLTCLASYCWLFWTGIA = tested on: T18, rRASGKLTCLASYCWLFWTGIA
T18 sequence: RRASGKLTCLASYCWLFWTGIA

Substance: human Factor IXa
- Vmax, FXa generation assay [1]: > 3
- Vmax, FXa generation assay; (++) means 1-2 [2]: (++)
- Vmax, FXa generation assay; (++) means 1-2 (GVEDRQLTCLASSCWVFSRHSV): (++)
- Vmax, FXa generation assay; (++) means 1-2 (KLTCL-Dpr-SYCWLF): (++)
- Vmax, FXa generation assay; (++) means 1-2 [3]: (++)
- Vmax, FXa generation assay; (++) means 1-2 (Lys(Me)-LTCLASYCWLF): (++)
- Vmax, FXa generation assay [4]: > 3
- Vmax, FXa generation assay (RKAPGKLQCLASYCWLFWTGIA): > 2
- Vmax, FXa generation assay [5]: > 3
- Vmax, FXa generation assay [6]: > 0.3
- Vmax, FXa generation assay (RRAPGKLQCLASYCWLFWTGAA): > 3
- Vmax, FXa generation assay [7]: > 2
- Vmax, FXa generation assay; (++) means 1-2 [8]: (++)
- Vmax, FXa generation assay (RRAPGKLTCLASyCWLFWTGIA): > 2
- Vmax, FXa generation assay [9]: > 3
- Vmax, FXa generation assay (kLTCLASYCWLF): > 2
- Vmax, FXa generation assay; (++) means 1-2 (rRAPGKSTCLASYCWLFWTGIA): (++)
- Vmax, FXa generation assay; (++) means 1-2 (rRASGKLTCLASYCWLFWTGIA): (++)
